Source: the nanobody polyreactivity screen of Harvey et al. (2022)

Assay: yeast display, Sf9 membrane polyspecificity reagent, FACS + sequencing; frameworks hold sequencing errors
Procedure, shortened: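 A nanobody's polyreactivity label depends on the gate it was sorted from. Yeast display cells were stained with 10% biotinylated, detergent-solubilized Sf9 membrane reagent for 1 hour at 4 °C, enriched on streptavidin microbeads and sorted by FACS. The low and high (top ~1%) gates were set on anti-HA fluorescence for expression and streptavidin fluorescence for reagent binding.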

Sequence	polyreactivity (PSR sort gate)
QVQLVESGGGVVQAGGSLRLSCAATGSRYWDYPMGWYRQAPGKERELVAAISTSGGSTYYADSVKGRFTISRDNAKNTVYLQMNSLNPEDTAVYYCATRVRTGSVGNFNYWGQGTQVTVSS	high polyreactivity
QVQLVESGGGVVQAGGSLRLSCAAYGSIFEANDMGWYRQAPGKERELVAAIDANTGSTYYADSVKGRFTISLDNAKNTVYLQMNSLKPEVTAVYYCNAQVYLQTAYDYWGQGTQVSVSS	low polyreactivity
QVQLVESGGGVVQAGGSLRLSCASSGSIFGPYVMGWYRQAPGKERELVAAISKSGGSTYYADSVKGRFTISRDNAKNTVFLLMNSLKPEDTAVYYCATDYLGGGKRYYYWGQGTQVTVSS	high polyreactivity
QVQLVESGGGVVQAGGSLRLTCAASGLTFNIYSLGWYRQAPGKEREFDATISSSGGGTYYADSVKGRFSISRDHAKNTVYVQLHSLPPEDTAVYYCARDSPDHVTYLHYHYDYWGQGTQVTVSS	low polyreactivity
QVQLVESGGGYVQAGGSLRLSCAASGSIFRGYAMGWSRQAPGKEWELVATIDSSAGSTYYADSVKGRYTISRDNAKNTVYLQMNSLKPEDTAVFYCATDPYGYYYSGYDYWGQGTQVTVSW	low polyreactivity
QVQLVESGGGYVQAGGSLRLSCAASGSTFKGYAMGLYRQAPGKEMELVAAITWIGGSTTYADSVKGRFTISCDNAKNTVYLQMNSLKPEDTAVYYCAADNFWYFLSATEDYWGQGTQVTVSS	low polyreactivity
QVQLVESGGPLVKSRGSLRLICAASGRTYCEYSMGWYRQAPGKERELVADITNGSRTYYADSVKGRFTISRDNAKNTVYLQMNSLKPEDTSVYYCAADWWKEVDYWGQGTEVTVSS	low polyreactivity
QVQLVESGGRKVQAGGSLRLSCAASGSTIWPYAMGCYRQAPAKERELVAAISNGGGTKYADSVKGRFTISRDNAKNTVYLQMNSLKPEHTAVYYCAKTLWTGRAWYDYWGQGTQVTVSS	high polyreactivity
QVQLVESGGRLLQEGGSLRLSCAASGLIVTYYTMGWYRPAPGKERELVASIDSGGSTNYADSVQGRFTISRDNAKNTVYLQLNCLKPEDTAVEFCAADYDGWFYEMGYWGQGTQVTVSS	low polyreactivity
QVQLVESGGRLVEAGGSLRISWAASGLIFGYNAMGWYRQAPGKERELVAAISGSGGRTYYADSVKGRFTISRDNAKNTVYLQMNSLKPEDTAVFYCAVADRRGLGYWGQGTQVTVSS	high polyreactivity
QVQLVESGGRLVEAGGSLRLSCAASGSTISGNAMGWYRQAPGKERELVAEITSDDSTNYADSVKGRFTISRDNAKNSVYLQMNSLKPEDTAVYYCAADVTYPYYQDHSVDYFIGYAYWRQGTQVTVSS	low polyreactivity
QVQLVESGGRLVQAGGILRLSCAASGRSFYFYAMGWYRKAPGKERELVAAITRGDDTNYADSVKGRFTISRDNAKNTVNLQMNSLKPEDTAVYYFGYATEYDYWGQGTQVTVSS	low polyreactivity
QVQLVESGGRLVQAGGILRLSCAASGSTFSPYAKGRNRQAPGKERELVAGITSSGGDTYYADSVKGRFTISRDNAKNTVYLLMNSLKPEDTAVYYCAADWWVLGQLWFDYWGHGTQVTVSS	low polyreactivity
QVQLVESGGRLVQAGGILRLSCAASGSTSHYYAMGWSRQAPGKERELVASITCSGGSTYYADSVKGRFTISRDNAKNTVYLQMNSLKPEATAVYYCNAQERRVRDYDYWGQGTQVTVSS	low polyreactivity
QVQLVESGGRLVQAGGRHRLSGAASRNIFDRYALGWNLQAPGKESDLVAGITWSGGSTYYADSVKGRFTISRDNAKNTVYLHMNSLKPEDTAVYYCGQANYYWGQGTQVTVSS	low polyreactivity
QVQLVESGGRLVQAGGSLLLSCAASGFTFDDYAMGRYRQAPGTERELVASITTSGASKYYADSVKGRFTISRDNAKNPVYLQMNSLKPEDTAVYYCAVDNDSYTSPRAGDDYWGQGTQVTVSS	low polyreactivity
QVQLVESGGRLVQAGGSLRLICAASGLTIRSYAMGWYRQAPGKERELVAAISDSGDSTYYADSVKGRFTISRDNAKNTVYFQMNSLKPEDTAVYYCAVEYSYEYEFWGQGTQVTVSS	low polyreactivity
QVQLVESGGRLVQAGGSLRLISAASGFTFRAYAMGWYRQAPGKERELVAAINISGGSTYYADSVKGRFTISRDNAKKTVYLKMNSLKPEDTAVYYCAADWPEDWYTEYGYWGQGTQVTVSS	low polyreactivity
QVQLVESGGRLVQAGGSLRLLCAASGSTFRYYAMGWYRPAPGKERELLAAISRSGGRTYYADSVKGRFTMSRDNAKTTVYLQMKSLKPEDTAVYDCATRGDGSSWGDYDYWGQGTQVTVSS	high polyreactivity
QVQLVESGGRLVQAGGSLRLRCAASGSTFMSNAMGWYRPAPGKERELVAAITGSGGNTYYADSVKGRFTISRDNAKNTVYLQMNSLKPEDTAVYYCAAVAPRSNYWRGYYYWGQGTQVTVSS	high polyreactivity
QVQLVESGGRLVQAGGSLRLSCAASGFIFDDYDIGWYTQAPGKERELVDAISWSGGSTYYEDSLKGRFTISRDNAKNTVYLQMNSLKPEDTAVYYCNADYYRSRYDYWGQGTQVTVSS	high polyreactivity
QVQLVESGGRLVQAGGSLRLSCAASGFIFKYYAMGWYRQAPGKEREFVAAITWSGSSTNYADSVKGRFTISRDNAKNTVYLQMNSLKPEDTAVYYCNADRKYYKYDYWGQGTQVTVSS	high polyreactivity

Sequence	polyreactivity (PSR sort gate)
QVQLVESGGRLVQAGGSLRLSCAASGFIFYQYAMGWYRQAPGKERELVAVISRTGSTSYADSVKGRFTISRDNAKNSVYLQLNSLKAEDTAGYYCAKKRALRYYGYDYWGQGTQVTVSS	high polyreactivity
QVQLVESGGRLVQAGGSLRLSCAASGFTFGAYAMGWYRQAPGKERELVATIRYSGDSTYYADSVKGRFTISRDNAKNTVYLQMNSLKPEDTAVYYCAADVYGGIGYDYWGQGTQVTVSS	low polyreactivity
QVQLVESGGRLVQAGGSLRLSCAASGFTFNRYAMGGYRHAPGKERELVARITRGGSTKYADSVKGRFTISRDNAKNTVYLQMNSLKPEDTAVYYCAADYGGFLGYDYWGQGTQVTVSS	high polyreactivity
QVQLVESGGRLVQAGGSLRLSCAASGFTFPWYTMGWYRQPPGKEREFVAAITVSGGSTYYADSVKGRFTISRDNAKNSVYLQMNSLKPEDTAVYYCARDGRVVYDSRYDYWGQGTQVTVSS	low polyreactivity
QVQLVESGGRLVQAGGSLRLSCAASGINFGYYAMGLYRQAPGKEMELVAAINKSGTSTYYADSVKGRFTISRDNAKNTVYLQMNSLKPEDTAVYYCAVDYARDKGYPYGYWGQGTQVTVSS	low polyreactivity
QVQLVESGGRLVQAGGSLRLSCAASGIPFEYYAMGWYRQAPGKERELVAAIDTGGSTNYADSVKGRFTISRDNAKNTVYLQMNSLKPEDTAVYYCAADWSWWDGEDYHFEYDYWGQGTQVTVSS	low polyreactivity
QVQLVESGGRLVQAGGSLRLSCAASGLIYSRYAMGGYRQAPGKEREFVATISWSGGSRYYADSVKGRFTISRDNAKNTVYLQMNSLKPEDTAVYYCATKKWYYPGDSKYYYWGQGTQVTVSS	high polyreactivity
QVQLVESGGRLVQAGGSLRLSCAASGLTFGRYAMGWYSQAPGKERELVASISQRGGSSYYADSVKGRFTISRDNAKNTVFLQMNSLKPEDTAVYYCNARVRDIYRYSMDSWGQGTQVTVSS	low polyreactivity
QVQLVESGGRLVQAGGSLRLSCAASGLTFSGYAMGWYRQAPGKERELVAAISGGGGSTYYADSVKGRFTISRDNAKNTVYLQMNSLKPEDTAVYYCAARPRWYTYTRQEYDYWGQGTQVTVSS	high polyreactivity
QVQLVESGGRLVQAGGSLRLSCAASGRIFASNAMGWYRQAPGKERELVAAITTTGGSTYYADSVKGRFTISRDNAKNTVYLQMNSLKPEDTAVYYCAARAIPRVRRYGSMNYWGQGTQVTVSS	high polyreactivity
QVQLVESGGRLVQAGGSLRLSCAASGRIFGYYAMGWYRQAPGKERELVAAINYSGGSTYYADSVKGRFTISRDNAKNTVYLQMNSLKPEDTAVYYCNAVRYTLLYYWGQGTQVTVSS	high polyreactivity
QVQLVESGGRLVQAGGSLRLSCAASGRIFNNYAMGWYRQAPGKERELVAAISGGGSTNYADSVKGRFTISRDNAKNTVYLQMNSLKPEDTAVYYCASGYLKASRDLYETVPYDYWGQGTQVTVSS	low polyreactivity
QVQLVESGGRLVQAGGSLRLSCAASGRIFRDNAMGWYRQAPGKEMELVATIRSGTNTNYADSVKGRFTISRDYAKNTVYLQMNSLKPEDTAVYYCAADLWGSHYTEYRRYPYEYDYWGQGTQVTLSS	low polyreactivity
QVQLVESGGRLVQAGGSLRLSCAASGRIFRYNAMGWYIQAPGKEREFVAAIRGSSSRTYYADSVKGRFTISRDNAKNTVYLQMNSLKPEDTAVYYCNAYVYYSHEDDYWGQGTQVTVSS	high polyreactivity
QVQLVESGGRLVQAGGSLRLSCAASGRIFRYNAMGWYRQAPGKEREFVARISVITGRTYYADSVKGRFTISRDIAKNTVYLQMNSLKPEDTAVYYCAADAGYNYRYLLRGDYWGQGTQVTVSS	high polyreactivity
QVQLVESGGRLVQAGGSLRLSCAASGRIFSRYAMGWYRPAPGKERELVATITWSGGSTYYADSVKGRFTISRDNAKNTVYLQMNSLKPEDTAVYYCNADVTYLYKMDYWGQGTQVTVSS	low polyreactivity
QVQLVESGGRLVQAGGSLRLSCAASGRILRYYALGWYRQAPGKERELVASISRGGSTYYADSVKGRFTISRDNAKNTVYLQMNSLKPEDTAVYDCATEVRRSTREFGYWGQGTQVTVSS	high polyreactivity
QVQLVESGGRLVQAGGSLRLSCAASGRTFGKYVMGWYRQAPGKERELVAAISRSGGGTYYADSVKGRFTISRDNAKNTVYLQMNSLKPEDTAVYYCAKGSRSNIFQDSYNYWGQGSQVTVSS	high polyreactivity
QVQLVESGGRLVQAGGSLRLSCAASGRTFGYNTMGWYRPAPGKEREVVARITWSGASTYYADSVKGRFTISRDNAKNTVYLQMNSLKPEDTAVYYCNTADTVSWRSPYDYWGQGTQVTVSS	high polyreactivity
QVQLVESGGRLVQAGGSLRLSCAASGRTFHRYAMGWYRQAPGKERELVAAITSSGGSTNYADSVKGRFTISRDNAKNTVYLQMNSLKPEDTAVYYCATVRYRYTSHPWSRGFDYWGQGTQVTVSS	low polyreactivity
QVQLVESGGRLVQAGGSLRLSCAASGRTFPYNAMGWSRQAPRKERELVAAITWSGGSTYYADSVKGRFTISRDNAKNTVYLQMNSLKPEDTAVYYCAADEIYGYDYWGQGTQVTVSS	high polyreactivity
